Experimental findings from patent publication US7098025B1, “Human peroxisome proliferator activated receptor gamma (pparγ) gene regulatory sequences and uses therefor” (Ligand Pharmaceuticals Incorporated, priority 1997, dated 2006) are described below.

One data set has as its system PPARγ expression. In words: PPARγ expression in primary macrophages and monocytic cell lines. The class given is cell-based. The text has this:
PPARγ is expressed in a subset of macrophages and negatively regulates the expression of several pro-inflammatory genes in response to its ligands. We recently discovered the presence of PPARγ in human macrophages foam cells of human atherosclerotic lesions. In these cells, PPARγ is present in a pattern correlated with that of oxidation-specific epitopes. Oxidized low-density lipoprotein (LDL) and macrophage colony stimulating factor (MCSF) are known to be present in atherosclerotic lesions. […] Furthermore, phorbol esters induced PPARγ expression.

Data set [1] has as its target PPARgamma2/RXRalpha heterodimer (Homo sapiens / Mus musculus, UniProt P37231;P28700 P37231:1-505,P28700:1-467). Kind of data set: EMSA; pH 7.9, 40 mM KCl, on ice; self-competition almost complete. To be noted: tags: rabbit reticulocyte lysate (Promega); label: 32P (T4-PNK). As to the method: (§1) To analyze whether PPARγ could bind to a PPRE, classically composed of direct repeats spaced by one intervening nucleotide (DR-1), EMSA was performed using in vitro transcribed/translated PPARγ2 protein. An oligonucleotide containing a high affinity PPRE, previously identified in the apoA-II promoter J site, was used in EMSA (29).
(§2) 7. Electrophoretic Mobility Shift Assays (EMSA) and Oligonucleotide Sequences haPPARγ (39), hPPARγ2, and mRXRα (40) proteins were synthesized in vitro in rabbit reticulocyte lysate (Promega). Molecular weights and quality of the in vitro translated proteins were verified by SDS-PAGE. PPAR (2 μl) and/or RXR (2 μl) were incubated for 15 min on ice in a total volume of 20 μl with 1-ng probe, 2.5 μg of poly(dI-dC) and 1 μg of herring sperm DNA in binding buffer (10 mM Tris-HCl pH 7.9, 40 mMKCl, 10% glycerol, 0.05% Nonidet P-40, and 1 mM dithiothreitol). For competition experiments, increasing amounts (from 10- to 200-fold molar excess) of cold oligonucleotide (AII-J-PPRE, 5'-[…]-3' (41) SEQ ID NO: 24; acyl-CoA oxidase (ACO)-PPRE, 5'-[…]-3' (42) SEQ ID NO: 25; or LPL-PPRE, 5'-[…]-3 (23) SEQ ID NO: 26; were included just before adding T4-PNK end-labeled AII-J-PPRE oligonucleotide. DNA-protein complexes were separated by electrophoresis on a 4% polyacrylamide gel in 0.25×TBE buffer at 4° C. (43).

In another data set the target is PPARgamma2 (Homo sapiens, UniProt P37231 P37231:1-505). In words: EMSA; homodimer, no RXR. To be noted: tags: rabbit reticulocyte lysate (Promega); label: 32P (T4-PNK). As to the method:
as §1, §2

The target of data set [2] is PPARgamma/RXRalpha heterodimer (hamster haPPARgamma) (hamster / Mus musculus, UniProt P57797;P28700 P57797:1-475,P28700:1-467). In words: EMSA; pH 7.9, 40 mM KCl, on ice. The following applies: tags: rabbit reticulocyte lysate (Promega); label: 32P (T4-PNK). The method, then: as §1, §2
On the technique in general: In EMSA bound probe runs differently from free probe, usually more slowly.

The target of the next data set is T1, RXRalpha (Mus musculus, UniProt P28700 P28700:1-467).
T1 sequence: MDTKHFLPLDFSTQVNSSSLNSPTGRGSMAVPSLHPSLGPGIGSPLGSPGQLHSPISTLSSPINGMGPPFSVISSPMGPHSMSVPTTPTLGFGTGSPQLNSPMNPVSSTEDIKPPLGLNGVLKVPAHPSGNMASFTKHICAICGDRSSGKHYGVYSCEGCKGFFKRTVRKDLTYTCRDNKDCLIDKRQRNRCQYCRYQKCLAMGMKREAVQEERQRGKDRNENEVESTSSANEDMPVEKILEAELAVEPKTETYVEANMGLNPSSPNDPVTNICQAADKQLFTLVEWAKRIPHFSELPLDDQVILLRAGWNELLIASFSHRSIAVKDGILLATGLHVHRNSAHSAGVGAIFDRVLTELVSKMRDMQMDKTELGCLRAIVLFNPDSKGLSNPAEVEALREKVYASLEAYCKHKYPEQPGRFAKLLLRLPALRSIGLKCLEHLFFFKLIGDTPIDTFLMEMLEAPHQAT
Kind of data set: EMSA; homodimer, no PPAR. The following applies: tags: rabbit reticulocyte lysate (Promega); label: 32P (T4-PNK). The method, then: as §1, §2

Sequence of PPARgamma2 (P37231 whole entry, one chain of several): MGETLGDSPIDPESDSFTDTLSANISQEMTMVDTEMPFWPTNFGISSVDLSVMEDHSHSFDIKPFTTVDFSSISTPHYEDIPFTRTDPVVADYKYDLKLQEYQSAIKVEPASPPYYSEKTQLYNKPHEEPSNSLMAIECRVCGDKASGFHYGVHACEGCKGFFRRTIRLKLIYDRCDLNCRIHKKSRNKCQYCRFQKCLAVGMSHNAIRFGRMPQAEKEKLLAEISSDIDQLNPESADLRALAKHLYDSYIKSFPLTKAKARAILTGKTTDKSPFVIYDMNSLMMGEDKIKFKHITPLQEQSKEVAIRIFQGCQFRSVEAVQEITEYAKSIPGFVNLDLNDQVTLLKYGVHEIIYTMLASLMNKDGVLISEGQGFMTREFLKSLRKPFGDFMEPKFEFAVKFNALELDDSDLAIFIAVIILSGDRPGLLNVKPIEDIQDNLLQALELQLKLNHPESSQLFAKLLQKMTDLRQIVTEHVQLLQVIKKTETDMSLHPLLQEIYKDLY
Sequence of PPARgamma2/RXRalpha heterodimer (P37231 whole entry, one chain of several): as above

B1: MCSF: macrophage colony stimulating factor (protein, UniProt P09603 33-554, looked up)
Macrophage colony-stimulating …: EEVSEYCSHMIGSGHLQSLQRLIDSQMETSCQITFEFVDQEQLKDPVCYLKKAFLLVQDIMEDTMRFRDNTPNAIAIVQLQELSLRLKSCFTKDYEEHDKACVRTFYETPLQLLEKVKNVFNETKNLLDKDWNIFSKNCNNSFAECSSQDVVTKPDCNCLYPKAIPSSDPASVSPHQPLAPSMAPVAGLTWEDSEGTEGSSLLPGEQPLHTVDPGSAKQRPPRSTCQSFEPPETPVVKDSTIGGSPQPRPSVGAFNPGMEDILDSAMGTNWVPEEASGEASEIPVPQGTELSPSRPGGGSMQTEPARPSNFLSASSPLPASAKGQQPADVTGTALPRVGPVRPTGQDWNHTPQKTDHPSALLRDPPEPGSPRISSLRPQGLSNPSTLSAQPQLSRSHSSGSVLPLGELEGRRSTRDRRSPAEPEGGPASEGAARPLPRFNSVPLTDTGHERQSEGSFSPQLQESVFHLLVPSVILVLLAVGGLLFYRWRRRSHQEPQRADSPLEQPEGSPLTQDDRQVELPV
With B1, the PPARγ expression entry with PPARγ expression is listed as “stimulate PPARγ expression”.

B2: apoA-II J site PPRE (dsDNA)
DNA 1: GATCCTTCAACCTTTACCCTGGTAGA
DNA 2: TCTACCAGGGTAAAGGTTGAAGGATC
On to B2, for which the binding result is listed as “binds” in data set [1], “no binding” with PPARgamma2, “binds” in data set [2] and “no binding” in the data set with RXRalpha.
